Test results: patent US20230265151A1, “GIP/GLP1 CO-AGONIST COMPOUNDS” (priority 2020, published 2023)

What was measured:
Experiment in all cases: cell-based or functional assay
[1] = target: T1, human glucose-dependent insulinotropic polypeptide (GIP) receptor (human, UniProt P48546 22-466)
T1 sequence (looked up): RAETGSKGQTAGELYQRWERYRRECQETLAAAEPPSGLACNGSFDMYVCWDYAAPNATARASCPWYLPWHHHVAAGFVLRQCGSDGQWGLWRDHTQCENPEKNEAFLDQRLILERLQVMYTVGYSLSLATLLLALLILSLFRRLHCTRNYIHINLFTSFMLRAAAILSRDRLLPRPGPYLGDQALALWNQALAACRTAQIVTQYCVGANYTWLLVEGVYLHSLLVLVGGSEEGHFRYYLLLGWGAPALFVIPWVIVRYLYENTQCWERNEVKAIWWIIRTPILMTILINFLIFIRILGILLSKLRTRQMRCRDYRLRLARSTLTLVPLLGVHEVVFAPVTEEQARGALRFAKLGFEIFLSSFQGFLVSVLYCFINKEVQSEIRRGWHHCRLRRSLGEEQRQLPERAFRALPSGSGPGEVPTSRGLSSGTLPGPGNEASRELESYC

[2] = target: human glucagon-like peptide-1 (GLP-1) receptor (human, UniProt P43220 24-463)
[3] = target: human glucagon receptor (human, UniProt P47871 26-477)

B1: Example 277 (peptide)
peptide: YXEGTXTSDXSIXLDXKAQXKFIXXLIEGGPSSGAPPPS
modifications: Aib2, αMeF(2F)6, OMeY10, αMeL13, Orn16, K17(Z), Aib20, K21(Z), D-Glu24, αMeY25, C-terminal NH2; Z = AEEA2-(γ-Glu)-(10-(4-carboxyphenoxy)decanoyl)
B1 was tested, and the “cAMP EC50” value [1] was 0.0176 nM, the “cAMP EC50” value [2] was 0.225 nM and the “cAMP EC50” value [3] was > 9950 nM.

B2: Example 159 (peptide)
peptide: YXEGTXTSDXSIXLDXKAQXEFIEXLIEGGKSSGAPPPS
modifications: Aib2, αMeF(2F)6, 4Pal10, αMeL13, Orn16, K17(Z), Aib20, αMeF25, K31(Z), C-terminal NH2; Z = AEEA2-(γ-Glu)-CO-(CH2)12-CO2H
B2 was tested, and the “cAMP EC50” value [1] was 0.0198 nM, the “cAMP Emax” value [1] was 95.3% and the “cAMP EC50” value [2] was 0.558 nM. The “cAMP Emax” value [2] was 89.4% and the “cAMP EC50” value [3] was > 9950 nM.

B3: Example 160 (peptide)
peptide: YXEGTXTSDXSIXLDXKAQXEFIKXLIEGGPSSGAPPPS
modifications: Aib2, αMeF(2F)6, 4Pal10, αMeL13, Orn16, K17(Z), Aib20, K24(Z), αMeY25, C-terminal NH2; Z = AEEA2-(εK)-CO-(CH2)12-CO2H
B3 was tested, and the “cAMP EC50” value [1] was 0.0197 nM, the “cAMP EC50” value [2] was 0.228 nM and the “cAMP EC50” value [3] was > 9950 nM.

B4: Example 283 (peptide)
peptide: YXEGTXTSDXSIXLDXIAQXEFIKXLIKGGPSSGAPPPS
modifications: Aib2, αMeF(2F)6, 2Nal10, αMeL13, Orn16, Aib20, K24(Z), αMeY25, K28(Z), C-terminal NH2; Z = AEEA2-(γ-Glu)-(10-(4-carboxyphenoxy)decanoyl)
B4 was tested, and the “cAMP EC50” value [1] was 0.073 nM, the “cAMP EC50” value [2] was 1.14 nM and the “cAMP EC50” value [3] was > 9950 nM.

B5: Example 287 (peptide)
peptide: YXEGTXTSDXSIXLDXIAQXKFIXXLIKGGPSSGAPPPS
modifications: Aib2, αMeF(2F)6, 4Pal10, αMeL13, Orn16, Aib20, K21(Z), D-Glu24, αMeY25, K28(Z), C-terminal NH2; Z = AEEA2-(γ-Glu)-(11-(4-carboxyphenoxy)undecanoyl)
B5 was tested, and the “cAMP EC50” value [1] was 0.0189 nM, the “cAMP EC50” value [2] was 0.563 nM and the “cAMP EC50” value [3] was > 9950 nM.

B6: Example 282 (peptide)
peptide: YXEGTXTSDXSIXLDXKAQXEFIXXLIKGGPSSGAPPPS
modifications: Aib2, αMeF(2F)6, 2Nal10, αMeL13, Orn16, K17(Z), Aib20, D-Glu24, αMeY25, K28(Z), C-terminal NH2; Z = AEEA2-(γ-Glu)-(10-(4-carboxyphenoxy)decanoyl)
With B6 the “cAMP EC50” value [1] was 0.0193 nM, the “cAMP EC50” value [2] was 0.216 nM and the “cAMP EC50” value [3] was > 9950 nM.

B7: Example 169 (peptide)
peptide: YXEGTXTSDXSIXLDXKAQXEFIXXLIEGGKSSGAPPPS
modifications: Aib2, αMeF(2F)6, 4Pal10, αMeL13, Orn16, K17(Z), aMeF20, D-Glu24, αMeY25, K31(Z), C-terminal NH2; Z = AEEA2-(γ-Glu)-CO-(CH2)12-CO2H
For B7, the “cAMP EC50” value [1] was 0.0381 nM, the “cAMP EC50” value [2] was 1.23 nM and the “cAMP EC50” value [3] was > 9950 nM.

B8: Example 278 (peptide)
peptide: YXEGTXTSDXSIXLDXKAQXEFIXXLIKGGPSSGAPPPS
modifications: Aib2, αMeF(2F)6, OMeY10, αMeL13, Orn16, K17(Z), Aib20, D-Glu24, αMeY25, K28(Z), C-terminal NH2; Z = AEEA2-(γ-Glu)-(10-(4-carboxyphenoxy)decanoyl)
For B8, the “cAMP EC50” value [1] was 0.0173 nM, the “cAMP EC50” value [2] was 0.29 nM and the “cAMP EC50” value [3] was > 9950 nM.

B9: Example 170 (peptide)
peptide: YXEGTXTSDXSIXLDXKAQXEFIXXLIEGGKSSGAPPPS
modifications: Aib2, αMeF(2F)6, 4Pal10, αMeL13, Orn16, K17(Z), Ac5c20, D-Glu24, αMeY25, K31(Z), C-terminal NH2; Z = AEEA2-(γ-Glu)-CO-(CH2)12-CO2H
For B9, the “cAMP EC50” value [1] was 0.0244 nM, the “cAMP EC50” value [2] was 1.03 nM and the “cAMP EC50” value [3] was > 9950 nM.

B10: Example 156 (peptide)
peptide: YXEGTXTSDXSIXLDXKAQXEFIXXLIEGGKSSGAPPPS
modifications: Aib2, αMeF(2F)6, 4Pal10, αMeL13, Orn16, K17(Z), 4Pal20, D-Glu24, αMeY25, K31(Z), C-terminal NH2; Z = AEEA2-(γ-Glu)-CO-(CH2)12-CO2H
With B10 the “cAMP EC50” value [1] was 0.0422 nM, the “cAMP EC50” value [2] was 4.6 nM and the “cAMP EC50” value [3] was > 9950 nM.

B11: Example 286 (peptide)
peptide: YXEGTXTSDXSIXLDXIAQXEFIKXLIKGGPSSGAPPPS
modifications: Aib2, αMeF(2F)6, 4Pal10, αMeL13, Orn16, Aib20, K24(Z), αMeY25, K28(Z), C-terminal NH2; Z = AEEA2-(γ-Glu)-(11-(4-carboxyphenoxy)undecanoyl)
With B11 the “cAMP EC50” value [1] was 0.0344 nM, the “cAMP EC50” value [2] was 0.678 nM and the “cAMP EC50” value [3] was > 9950 nM.

B12: Example 174 (peptide)
peptide: YXEGTXTSDXSIXLDXKAQXEXIXXLIEGGKSSGAPPPS
modifications: Aib2, αMeF6, 4Pal10, αMeL13, Orn16, K17(Z), Aib20, αMeF22, D-Glu24, αMeF25, K31(Z), C-terminal NH2; Z = AEEA2-(γ-Glu)-CO-(CH2)10-CH3
With B12 the “cAMP EC50” value [1] was 0.0284 nM, the “cAMP Emax” value [1] was 92.2% and the “cAMP EC50” value [2] was 0.33 nM. The “cAMP Emax” value [2] was 98.2% and the “cAMP EC50” value [3] was > 9950 nM.

B13: Example 284 (peptide)
peptide: YXEGTXTSDXSIXLDXIAQXKFIXXLIKGGPSSGAPPPS
modifications: Aib2, αMeF(2F)6, 2Nal10, αMeL13, Orn16, Aib20, K21(Z), D-Glu24, αMeY25, K28(Z), C-terminal NH2; Z = AEEA2-(γ-Glu)-(10-(4-carboxyphenoxy)decanoyl)
For B13, the “cAMP EC50” value [1] was 0.0389 nM, the “cAMP EC50” value [2] was 0.505 nM and the “cAMP EC50” value [3] was > 9950 nM.

B14: Example 162 (peptide)
peptide: YXEGTXTSDXSIXLDXKAQXEFIKXLIEGGPSSGAPPPS
modifications: Aib2, αMeF(2F)6, 4Pal10, αMeL13, Orn16, K17(Z), Aib20, K24(Z), αMeY25, C-terminal NH2; Z = (εK)-(εK)-(γ-Glu)-CO-(CH2)12-CO2H
B14 was tested, and the “cAMP EC50” value [1] was 0.022 nM, the “cAMP Emax” value [1] was 89.7% and the “cAMP EC50” value [2] was 0.327 nM. For the same binder, the “cAMP EC50” value [3] was > 9950 nM.

B15: Example 172 (peptide)
peptide: YXEGTXTSDXSIXLDXKAQXEFIXXLIEGGKSSGAPPPS
modifications: Aib2, αMeF6, 4Pal10, αMeL13, Orn16, K17(Z), Aib20, D-Glu24, αMeY25, K31(Z), C-terminal NH2; Z = AEEA2-(γ-Glu)-CO-(CH2)10-CH3
With B15 the “cAMP EC50” value [1] was 0.0149 nM, the “cAMP EC50” value [2] was 0.141 nM and the “cAMP EC50” value [3] was > 9950 nM.
